Key:
[1] = target: complement C3b (human, UniProt P01024;P01024 23-667;749-1663); assay: EMSA; 250 nM protein; 20 mM HEPES pH 7.4, 150 mM NaCl, 10 mM MgCl2, BSA and yeast RNA 1 ug/20 uL each, 45 min at 37 C; conditions: protein: native; copies: 1;1; label: 32P
[2] = target: T1, complement iC3b (human, UniProt P01024;P01024;P01024 23-667;749-1303;1321-1663); assay: filter binding; 20 mM HEPES pH 7.4, 150 mM NaCl, 10 mM MgCl2, BSA and yeast RNA 1 ug/20 uL each, 45 min at 37 C; conditions: protein: native; copies: 1;1;1; label: 32P
[3] = target: complement C3 (human, UniProt P01024;P01024 23-667;672-1663); assay: as above; conditions: protein: native; copies: 1;1; label: 32P
[4] = target: T1, complement iC3b; assay: EMSA; 250 nM protein; 20 mM HEPES pH 7.4, 150 mM NaCl, 10 mM MgCl2, BSA and yeast RNA 1 ug/20 uL each, 45 min at 37 C; conditions: protein: native; copies: 1;1;1; label: 32P

T1 sequence (P01024 23-667, chain 1 of 3): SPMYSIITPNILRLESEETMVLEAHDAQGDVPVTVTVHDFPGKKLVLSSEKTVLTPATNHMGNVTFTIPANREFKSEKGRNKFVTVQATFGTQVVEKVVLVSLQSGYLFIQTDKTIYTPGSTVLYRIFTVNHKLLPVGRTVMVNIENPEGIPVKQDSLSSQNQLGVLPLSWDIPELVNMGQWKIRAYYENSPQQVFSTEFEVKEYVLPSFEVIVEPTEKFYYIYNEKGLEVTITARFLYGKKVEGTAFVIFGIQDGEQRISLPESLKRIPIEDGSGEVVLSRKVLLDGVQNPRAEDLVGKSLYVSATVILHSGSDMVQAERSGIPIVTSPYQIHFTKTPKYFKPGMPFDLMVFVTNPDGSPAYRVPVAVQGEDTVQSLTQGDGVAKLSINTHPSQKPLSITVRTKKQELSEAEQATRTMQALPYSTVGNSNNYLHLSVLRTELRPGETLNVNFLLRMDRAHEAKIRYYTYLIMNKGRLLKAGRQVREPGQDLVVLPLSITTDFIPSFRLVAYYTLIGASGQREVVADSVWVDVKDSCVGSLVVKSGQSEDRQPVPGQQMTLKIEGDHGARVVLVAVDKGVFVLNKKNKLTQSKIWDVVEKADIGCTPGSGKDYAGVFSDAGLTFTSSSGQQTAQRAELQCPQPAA
T1 sequence (P01024 749-1303, chain 2 of 3): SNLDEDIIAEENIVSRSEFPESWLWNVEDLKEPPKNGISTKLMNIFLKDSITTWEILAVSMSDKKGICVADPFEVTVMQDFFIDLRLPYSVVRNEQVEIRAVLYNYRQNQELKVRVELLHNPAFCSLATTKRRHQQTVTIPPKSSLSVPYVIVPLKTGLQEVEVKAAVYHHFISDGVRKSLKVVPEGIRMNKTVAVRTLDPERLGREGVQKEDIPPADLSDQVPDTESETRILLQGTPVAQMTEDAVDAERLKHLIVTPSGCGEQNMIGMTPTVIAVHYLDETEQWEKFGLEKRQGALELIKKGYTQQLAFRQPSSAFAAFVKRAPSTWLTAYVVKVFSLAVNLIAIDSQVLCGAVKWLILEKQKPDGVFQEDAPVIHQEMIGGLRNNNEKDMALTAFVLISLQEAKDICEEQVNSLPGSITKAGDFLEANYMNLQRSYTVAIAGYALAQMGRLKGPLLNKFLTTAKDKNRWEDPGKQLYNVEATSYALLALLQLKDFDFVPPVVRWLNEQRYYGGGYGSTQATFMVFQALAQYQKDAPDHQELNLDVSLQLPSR
T1 sequence (P01024 1321-1663, chain 3 of 3): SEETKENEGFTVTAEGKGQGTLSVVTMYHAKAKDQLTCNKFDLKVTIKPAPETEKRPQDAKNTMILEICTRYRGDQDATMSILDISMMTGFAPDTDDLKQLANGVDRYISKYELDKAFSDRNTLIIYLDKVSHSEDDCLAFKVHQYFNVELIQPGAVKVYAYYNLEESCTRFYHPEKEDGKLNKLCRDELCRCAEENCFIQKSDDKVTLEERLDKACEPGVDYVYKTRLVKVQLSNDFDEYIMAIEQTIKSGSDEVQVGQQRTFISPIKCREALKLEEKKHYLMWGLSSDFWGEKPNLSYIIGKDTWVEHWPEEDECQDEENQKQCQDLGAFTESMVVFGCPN
complement C3b, sequence (P01024 23-667, chain 1 of 2): as the sequence (P01024 23-667, chain 1 of 3) above
complement C3b, sequence (P01024 749-1663, chain 2 of 2): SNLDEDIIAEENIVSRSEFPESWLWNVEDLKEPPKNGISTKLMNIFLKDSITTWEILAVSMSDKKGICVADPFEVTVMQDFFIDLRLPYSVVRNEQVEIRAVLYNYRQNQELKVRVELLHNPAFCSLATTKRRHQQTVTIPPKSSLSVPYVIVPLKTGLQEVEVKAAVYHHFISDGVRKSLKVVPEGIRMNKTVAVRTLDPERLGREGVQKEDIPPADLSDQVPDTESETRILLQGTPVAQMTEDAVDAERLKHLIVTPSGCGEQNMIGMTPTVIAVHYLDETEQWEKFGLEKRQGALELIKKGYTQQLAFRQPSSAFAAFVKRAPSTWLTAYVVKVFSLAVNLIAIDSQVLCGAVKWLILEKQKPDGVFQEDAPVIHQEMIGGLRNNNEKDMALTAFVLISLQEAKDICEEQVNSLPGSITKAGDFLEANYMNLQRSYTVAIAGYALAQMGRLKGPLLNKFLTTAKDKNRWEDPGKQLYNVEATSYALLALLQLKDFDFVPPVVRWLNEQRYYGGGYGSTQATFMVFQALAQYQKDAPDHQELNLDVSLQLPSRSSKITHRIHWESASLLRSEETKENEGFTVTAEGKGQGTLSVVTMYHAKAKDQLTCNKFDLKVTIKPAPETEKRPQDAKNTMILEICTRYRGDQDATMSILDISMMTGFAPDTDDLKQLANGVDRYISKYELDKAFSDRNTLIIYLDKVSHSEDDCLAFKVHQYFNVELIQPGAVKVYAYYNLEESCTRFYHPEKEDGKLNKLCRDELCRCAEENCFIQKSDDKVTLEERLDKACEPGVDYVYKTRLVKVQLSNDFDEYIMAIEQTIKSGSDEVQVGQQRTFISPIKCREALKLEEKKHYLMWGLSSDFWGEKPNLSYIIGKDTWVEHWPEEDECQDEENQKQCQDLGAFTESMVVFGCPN
complement C3, sequence (P01024 23-667, chain 1 of 2): as the sequence (P01024 23-667, chain 1 of 3) above
complement C3, sequence (P01024 672-1663, chain 2 of 2): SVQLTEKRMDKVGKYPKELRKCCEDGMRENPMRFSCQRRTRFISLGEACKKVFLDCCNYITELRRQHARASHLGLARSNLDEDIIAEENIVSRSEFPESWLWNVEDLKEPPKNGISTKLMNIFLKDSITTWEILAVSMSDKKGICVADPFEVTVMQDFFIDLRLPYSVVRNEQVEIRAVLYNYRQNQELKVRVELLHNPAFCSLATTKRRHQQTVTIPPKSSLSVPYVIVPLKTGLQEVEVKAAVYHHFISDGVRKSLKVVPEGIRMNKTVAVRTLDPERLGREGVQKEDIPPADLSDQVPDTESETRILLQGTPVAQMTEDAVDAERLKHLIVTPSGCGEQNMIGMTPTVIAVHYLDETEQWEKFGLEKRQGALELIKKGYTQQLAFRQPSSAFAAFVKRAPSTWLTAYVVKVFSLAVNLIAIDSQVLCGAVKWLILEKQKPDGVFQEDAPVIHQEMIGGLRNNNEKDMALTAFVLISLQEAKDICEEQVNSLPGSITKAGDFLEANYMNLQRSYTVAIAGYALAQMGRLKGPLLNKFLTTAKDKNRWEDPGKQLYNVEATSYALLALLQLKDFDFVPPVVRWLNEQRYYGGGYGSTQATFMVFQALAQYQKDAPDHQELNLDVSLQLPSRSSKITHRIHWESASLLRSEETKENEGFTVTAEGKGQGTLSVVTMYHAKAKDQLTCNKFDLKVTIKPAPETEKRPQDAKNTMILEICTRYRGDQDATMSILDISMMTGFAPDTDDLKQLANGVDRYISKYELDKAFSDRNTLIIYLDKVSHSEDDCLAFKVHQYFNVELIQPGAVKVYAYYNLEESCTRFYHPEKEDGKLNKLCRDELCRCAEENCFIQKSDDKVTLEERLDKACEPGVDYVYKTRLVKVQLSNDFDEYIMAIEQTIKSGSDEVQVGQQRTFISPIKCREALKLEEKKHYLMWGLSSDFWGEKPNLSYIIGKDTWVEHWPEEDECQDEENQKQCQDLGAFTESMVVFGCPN

B1: AptC3-VI (structured_RNA)
RNA: GGGAGAAUUCAACUGCCAUCUAACCACGUAGUAAUACGGUAUGAUCCAGUUUUAAUUCUAACCAGACUGUUCAGAUGACUACAAGCUUCUGGACUCGGU
modifications: 2'-fluoro pyrimidines
B1: binds [1].

B2: AptC3-III (structured_RNA)
RNA: GGGAGAAUUCAACUGCCAUCUACAGCCCCUCGGCCGCGUUCAGCGUCUAACCUUGGGCUGUAUAGAAAGGGUUUCCAGACUACAAGCUUCUGGACUCGGU
modifications: 2'-fluoro pyrimidines
With B2 the Kd [2] was 14.5 nM and the Kd [3] was 17 nM.

B3: AptC3-IV (structured_RNA)
RNA: GGGAGAAUUCAACUGCCAUCUAGUUGCAAAAACAUGAGGAUAGCAAAGUACCAGUGCAACUAACAAGGAAAAGAAGACGGACUACAAGCUUCUGGACUCGGU
modifications: 2'-fluoro pyrimidines
B3: binds [1]; binds [4].
